These results are taken from patent US20240132626A1.

For this assay, the target named is Soluble human cMet extracellular domain (ECD) protein (human) (UniProt P08581). Kind of assay: SPR, captured via anti-human kappa, soluble ECD injected.

Usually Kd stands for the concentration at which binding is half-saturated. Higher therefore signals weaker binding. Broadly, the koff is the rate constant with which the complex falls apart. For orientation: kon means the rate constant with which the complex forms.

Soluble human cMet extracellular domain (ECD) protein (human), sequence (P08581 25-932): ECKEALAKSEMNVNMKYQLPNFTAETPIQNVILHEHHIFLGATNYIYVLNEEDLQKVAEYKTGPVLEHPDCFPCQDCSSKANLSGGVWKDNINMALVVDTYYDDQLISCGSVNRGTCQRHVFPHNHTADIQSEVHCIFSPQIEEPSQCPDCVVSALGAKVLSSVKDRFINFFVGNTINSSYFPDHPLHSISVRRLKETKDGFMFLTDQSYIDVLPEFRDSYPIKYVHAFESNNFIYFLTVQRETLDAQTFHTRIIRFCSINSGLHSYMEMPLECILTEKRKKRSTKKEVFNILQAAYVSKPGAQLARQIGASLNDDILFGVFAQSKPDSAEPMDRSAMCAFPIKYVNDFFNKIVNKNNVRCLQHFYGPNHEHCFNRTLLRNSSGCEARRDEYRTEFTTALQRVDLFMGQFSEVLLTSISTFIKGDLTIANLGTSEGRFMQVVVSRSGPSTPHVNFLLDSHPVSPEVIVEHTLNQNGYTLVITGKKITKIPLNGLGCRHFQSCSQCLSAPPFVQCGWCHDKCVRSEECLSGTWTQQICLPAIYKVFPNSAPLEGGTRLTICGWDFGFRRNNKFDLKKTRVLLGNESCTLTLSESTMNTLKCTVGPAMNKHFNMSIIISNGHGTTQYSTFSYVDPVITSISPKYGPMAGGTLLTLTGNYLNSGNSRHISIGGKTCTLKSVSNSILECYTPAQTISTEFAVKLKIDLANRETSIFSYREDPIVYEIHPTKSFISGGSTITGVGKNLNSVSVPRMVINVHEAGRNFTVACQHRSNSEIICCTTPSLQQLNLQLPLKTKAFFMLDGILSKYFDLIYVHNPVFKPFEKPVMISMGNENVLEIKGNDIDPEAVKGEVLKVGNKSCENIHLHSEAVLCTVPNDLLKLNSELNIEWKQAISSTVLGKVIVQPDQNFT

B1: MetMAb (antibody, INN chains, looked up, V domains shown)
VH: EVQLVESGGGLVQPGGSLRLSCAASGYTFTSYWLHWVRQAPGKGLEWVGMIDPSNSDTRFNPNFKDRFTISADTSKNTAYLQMNSLRAEDTAVYYCATYRSYVTPLDYWGQGTLVTVSS
VL: DIQMTQSPSSLSASVGDRVTITCKSSQSLLYTSSQKNYLAWYQQKPGKAPKLLIYWASTRESGVPSRFSGSGSGTDFTLTISSLQPEDFATYYCQQYYAYPWTFGQGTKVEIKR
B1: the Kd was 1.3 nM, the koff was determined as 0.0001 s⁻¹ and the kon amounted to 75000 M⁻¹ s⁻¹.
